In patent US20140213531A1 (POLYPHOR, published 2014):
Bridges are numbered along the chain shown (N, C = ends). [ ]: non-standard residue; d: D form. Pro(4NHCOPhe) = not defined here; Nle = CCCC[C@H](N)C(=O)O

T1: Chymase, from human skin (human, UniProt P23946 22-247)
T1 sequence (looked up): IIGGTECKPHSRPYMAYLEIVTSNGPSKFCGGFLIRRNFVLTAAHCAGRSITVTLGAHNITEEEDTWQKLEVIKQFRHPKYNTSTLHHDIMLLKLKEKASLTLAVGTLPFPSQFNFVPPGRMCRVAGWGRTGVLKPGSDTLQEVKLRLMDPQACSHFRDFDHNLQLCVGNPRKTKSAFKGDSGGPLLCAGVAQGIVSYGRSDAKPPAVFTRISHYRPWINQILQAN

T2: CathepsinG, from human neutrophils (human, UniProt P08311 21-244)
T2 sequence (looked up): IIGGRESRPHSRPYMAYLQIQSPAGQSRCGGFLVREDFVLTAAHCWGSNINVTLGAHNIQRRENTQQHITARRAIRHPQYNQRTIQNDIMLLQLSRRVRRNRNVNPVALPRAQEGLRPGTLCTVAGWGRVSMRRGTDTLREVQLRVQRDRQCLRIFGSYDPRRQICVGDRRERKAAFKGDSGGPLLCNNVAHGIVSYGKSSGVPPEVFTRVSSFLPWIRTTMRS

T3: Elastase from human neutrophils (human, UniProt P08246 30-247, limits assumed)
T3 sequence (looked up): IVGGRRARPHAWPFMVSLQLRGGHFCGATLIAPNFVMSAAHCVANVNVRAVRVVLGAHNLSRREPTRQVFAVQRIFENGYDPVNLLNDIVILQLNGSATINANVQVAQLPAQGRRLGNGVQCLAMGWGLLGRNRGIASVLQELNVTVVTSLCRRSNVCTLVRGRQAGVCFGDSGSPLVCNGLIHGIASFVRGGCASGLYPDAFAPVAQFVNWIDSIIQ

T4: Chymase, from human skin (human, UniProt P23946 22-247)
T4 construct: purified natural enzyme, bought
T4 sequence (looked up): T1 sequence (looked up)

B1: Example 75 (peptide)
peptide: RCTKSDPPICF
HELM: PEPTIDE1{R.C.T.K.S.D.P.P.I.C.F.[dP].P}$PEPTIDE1,PEPTIDE1,2:R3-10:R3|PEPTIDE1,PEPTIDE1,1:R1-13:R2$$$V2.0
SMILES: CC[C@H](C)[C@@H]1NC(=O)[C@@H]2CCCN2C(=O)[C@@H]2CCCN2C(=O)[C@H](CC(=O)O)NC(=O)[C@H](CO)NC(=O)[C@H](CCCCN)NC(=O)[C@H]([C@@H](C)O)NC(=O)[C@@H]2CSSC[C@H](NC1=O)C(=O)N[C@@H](Cc1ccccc1)C(=O)N1CCC[C@@H]1C(=O)N1CCC[C@H]1C(=O)N[C@@H](CCCNC(=N)N)C(=O)N2
B2: Example 12 (peptide)
peptide: XCTKSDPPICR
HELM: PEPTIDE1{[O=C([C@@H](N[*:1])C1CCCCC1)[*:2]].C.T.K.S.D.P.P.I.C.R.[dP].P}$PEPTIDE1,PEPTIDE1,2:R3-10:R3|PEPTIDE1,PEPTIDE1,1:R1-13:R2$$$V2.0
SMILES: CC[C@H](C)[C@@H]1NC(=O)[C@@H]2CCCN2C(=O)[C@@H]2CCCN2C(=O)[C@H](CC(=O)O)NC(=O)[C@H](CO)NC(=O)[C@H](CCCCN)NC(=O)[C@H]([C@@H](C)O)NC(=O)[C@@H]2CSSC[C@H](NC1=O)C(=O)N[C@@H](CCCNC(=N)N)C(=O)N1CCC[C@@H]1C(=O)N1CCC[C@H]1C(=O)N[C@@H](C1CCCCC1)C(=O)N2
B3: Example 7 (peptide)
peptide: RETKSDPPIRF
HELM: PEPTIDE1{R.E.T.K.S.D.P.P.I.R.F.[dP].P}$PEPTIDE1,PEPTIDE1,1:R1-13:R2$$$V2.0
SMILES: CC[C@H](C)[C@@H]1NC(=O)[C@@H]2CCCN2C(=O)[C@@H]2CCCN2C(=O)[C@H](CC(=O)O)NC(=O)[C@H](CO)NC(=O)[C@H](CCCCN)NC(=O)[C@H]([C@@H](C)O)NC(=O)[C@H](CCC(=O)O)NC(=O)[C@H](CCCNC(=N)N)NC(=O)[C@@H]2CCCN2C(=O)[C@H]2CCCN2C(=O)[C@H](Cc2ccccc2)NC(=O)[C@H](CCCNC(=N)N)NC1=O
B4: Example 64 (peptide)
peptide: FCTKSDPPICS
HELM: PEPTIDE1{F.C.T.K.S.D.P.P.I.C.S.[dP].E}$PEPTIDE1,PEPTIDE1,2:R3-10:R3|PEPTIDE1,PEPTIDE1,1:R1-13:R2$$$V2.0
SMILES: CC[C@H](C)[C@@H]1NC(=O)[C@@H]2CCCN2C(=O)[C@@H]2CCCN2C(=O)[C@H](CC(=O)O)NC(=O)[C@H](CO)NC(=O)[C@H](CCCCN)NC(=O)[C@H]([C@@H](C)O)NC(=O)[C@@H]2CSSC[C@H](NC1=O)C(=O)N[C@@H](CO)C(=O)N1CCC[C@@H]1C(=O)N[C@@H](CCC(=O)O)C(=O)N[C@@H](Cc1ccccc1)C(=O)N2
B5: Example 68 (peptide)
peptide: FCTKSDPPICS
HELM: PEPTIDE1{F.C.T.K.S.D.P.P.I.C.S.[dA].D}$PEPTIDE1,PEPTIDE1,2:R3-10:R3|PEPTIDE1,PEPTIDE1,1:R1-13:R2$$$V2.0
SMILES: CC[C@H](C)[C@@H]1NC(=O)[C@@H]2CCCN2C(=O)[C@@H]2CCCN2C(=O)[C@H](CC(=O)O)NC(=O)[C@H](CO)NC(=O)[C@H](CCCCN)NC(=O)[C@H]([C@@H](C)O)NC(=O)[C@@H]2CSSC[C@H](NC1=O)C(=O)N[C@@H](CO)C(=O)N[C@H](C)C(=O)N[C@@H](CC(=O)O)C(=O)N[C@@H](Cc1ccccc1)C(=O)N2
B6: Example 103 (peptide)
peptide: XCTASIPPQCY
HELM: PEPTIDE1{[O=C([C@H](CCc1ccccc1)N[*:1])[*:2]].C.T.A.S.I.P.P.Q.C.Y.[dP].P}$PEPTIDE1,PEPTIDE1,2:R3-10:R3|PEPTIDE1,PEPTIDE1,1:R1-13:R2$$$V2.0
SMILES: CC[C@H](C)[C@@H]1NC(=O)[C@H](CO)NC(=O)[C@H](C)NC(=O)[C@H]([C@@H](C)O)NC(=O)[C@@H]2CSSC[C@H](NC(=O)[C@H](CCC(N)=O)NC(=O)[C@@H]3CCCN3C(=O)[C@@H]3CCCN3C1=O)C(=O)N[C@@H](Cc1ccc(O)cc1)C(=O)N1CCC[C@@H]1C(=O)N1CCC[C@H]1C(=O)N[C@@H](CCc1ccccc1)C(=O)N2
B7: Example 90 (peptide)
peptide: XCTASIPPQCF
HELM: PEPTIDE1{[Nle].C.T.A.S.I.P.P.Q.C.F.[dP].P}$PEPTIDE1,PEPTIDE1,2:R3-10:R3|PEPTIDE1,PEPTIDE1,1:R1-13:R2$$$V2.0
SMILES: CCCC[C@@H]1NC(=O)[C@@H]2CCCN2C(=O)[C@H]2CCCN2C(=O)[C@H](Cc2ccccc2)NC(=O)[C@@H]2CSSC[C@H](NC1=O)C(=O)N[C@@H]([C@@H](C)O)C(=O)N[C@@H](C)C(=O)N[C@@H](CO)C(=O)N[C@@H]([C@@H](C)CC)C(=O)N1CCC[C@H]1C(=O)N1CCC[C@H]1C(=O)N[C@@H](CCC(N)=O)C(=O)N2
notes: also called Ex. 90
B8: Example 121 (peptide)
peptide: XCTASIPPQCY
HELM: PEPTIDE1{[Nle].C.T.A.S.I.P.P.Q.C.Y.[dP].D}$PEPTIDE1,PEPTIDE1,2:R3-10:R3|PEPTIDE1,PEPTIDE1,1:R1-13:R2$$$V2.0
SMILES: CCCC[C@@H]1NC(=O)[C@H](CC(=O)O)NC(=O)[C@H]2CCCN2C(=O)[C@H](Cc2ccc(O)cc2)NC(=O)[C@@H]2CSSC[C@H](NC1=O)C(=O)N[C@@H]([C@@H](C)O)C(=O)N[C@@H](C)C(=O)N[C@@H](CO)C(=O)N[C@@H]([C@@H](C)CC)C(=O)N1CCC[C@H]1C(=O)N1CCC[C@H]1C(=O)N[C@@H](CCC(N)=O)C(=O)N2
B9: Example 131 (peptide)
peptide: XCTASIPPQCQ
HELM: PEPTIDE1{[Nle].C.T.A.S.I.P.P.Q.C.Q.[dP].P}$PEPTIDE1,PEPTIDE1,2:R3-10:R3|PEPTIDE1,PEPTIDE1,1:R1-13:R2$$$V2.0
SMILES: CCCC[C@@H]1NC(=O)[C@@H]2CCCN2C(=O)[C@H]2CCCN2C(=O)[C@H](CCC(N)=O)NC(=O)[C@@H]2CSSC[C@H](NC1=O)C(=O)N[C@@H]([C@@H](C)O)C(=O)N[C@@H](C)C(=O)N[C@@H](CO)C(=O)N[C@@H]([C@@H](C)CC)C(=O)N1CCC[C@H]1C(=O)N1CCC[C@H]1C(=O)N[C@@H](CCC(N)=O)C(=O)N2

Target: Urokinase from human urine (human, UniProt P00749 21-431, limits assumed)
Experiment: cell-based or functional assay

Row | % inhibition at 100 µM | Binder
1 | 5.7% | B1
2 | 12% | B2
3 | 1.1% | B3
4 | 3% | B4
5 | 4.6% | B5

Target: Coagulation Factor Xa, from human plasma (human, UniProt P00742 41-488, limits assumed)
Experiment: cell-based or functional assay

Chain of Coagulation Factor Xa, from human plasma (P00742 41-488 limits assumed): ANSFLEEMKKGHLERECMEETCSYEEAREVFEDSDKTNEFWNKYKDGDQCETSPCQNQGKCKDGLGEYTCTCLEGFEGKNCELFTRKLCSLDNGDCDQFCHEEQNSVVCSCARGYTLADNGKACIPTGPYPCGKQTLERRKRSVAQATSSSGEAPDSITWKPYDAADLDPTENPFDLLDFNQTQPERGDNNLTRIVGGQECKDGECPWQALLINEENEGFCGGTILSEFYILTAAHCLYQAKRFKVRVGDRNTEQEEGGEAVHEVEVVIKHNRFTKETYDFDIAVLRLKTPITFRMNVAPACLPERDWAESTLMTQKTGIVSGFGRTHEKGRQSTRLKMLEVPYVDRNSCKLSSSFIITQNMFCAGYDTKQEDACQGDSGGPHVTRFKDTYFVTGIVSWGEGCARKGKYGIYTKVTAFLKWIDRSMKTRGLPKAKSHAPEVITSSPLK

Row | % inhibition at 100 µM | Binder
6 | 5.7% | B1
7 | 5% | B2
8 | 11.7% | B3
9 | 0% | B4
10 | 8.6% | B5

Target: T1, Chymase, from human skin
Experiment: cell-based or functional assay

Row | % inhibition at 100 µM | Binder
11 | 0% | B1
12 | 12% | B2
13 | 13.4% | B3
14 | 0% | B4
15 | 0% | B5

Target: Chymotrypsin, from human pancreas (human, UniProt P17538 19-263)
Experiment: cell-based or functional assay

Chain of Chymotrypsin, from human pancreas (P17538 19-263): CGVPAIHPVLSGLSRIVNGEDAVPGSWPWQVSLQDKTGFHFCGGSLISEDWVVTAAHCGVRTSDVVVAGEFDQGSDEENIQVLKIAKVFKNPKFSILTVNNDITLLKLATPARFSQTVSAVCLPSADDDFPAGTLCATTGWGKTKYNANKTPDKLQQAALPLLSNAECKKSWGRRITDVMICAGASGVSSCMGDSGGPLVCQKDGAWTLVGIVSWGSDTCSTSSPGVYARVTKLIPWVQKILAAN

Row | % inhibition at 100 µM | Binder
16 | 7.8% | B1
17 | 28% | B2
18 | 12% | B3
19 | 0% | B4
20 | 4.3% | B5

Target: Tryptase, from human lung (human, UniProt Q15661 31-275, limits assumed)
Experiment: cell-based or functional assay

Chain of Tryptase, from human lung (Q15661 31-275 limits assumed): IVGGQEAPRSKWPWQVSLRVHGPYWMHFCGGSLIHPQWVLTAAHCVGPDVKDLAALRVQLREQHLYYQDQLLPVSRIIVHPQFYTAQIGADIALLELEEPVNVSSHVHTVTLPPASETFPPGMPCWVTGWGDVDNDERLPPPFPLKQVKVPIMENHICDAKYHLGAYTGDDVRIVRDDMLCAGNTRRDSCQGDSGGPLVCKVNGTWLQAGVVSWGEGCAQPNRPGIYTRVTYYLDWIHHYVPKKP

Row | % inhibition at 100 µM | Binder
21 | 0% | B1
22 | 59.3% | B2
23 | 1.5% | B3
24 | 0% | B4
25 | 21.3% | B5

Target: T2, CathepsinG, from human neutrophils
Experiment: cell-based or functional assay

Row | IC50 | Binder
26 | 86 nmol | B1
27 | 90 nmol | B2
28 | 91 nmol | B3
29 | 45 nmol | B4
30 | 59 nmol | B5

Target: T3, Elastase from human neutrophils
Experiment: cell-based or functional assay

Row | % inhibition at 100 µM | IC50 | Binder
31 | 69.1% |  | B1
32 |  | 37000 nmol | B2
33 | 1.5% |  | B3
34 |  | > 100000 nmol | B4
35 |  | > 100000 nmol | B5

Target: Trypsin, Iodination grade, from human pancreas (human, UniProt P07477 24-247)
Experiment: cell-based or functional assay

Row | % inhibition at 100 µM | Binder
36 | 92.6% | B1
37 | 97% | B2
38 | 41% | B3
39 | 87% | B4
40 | 84.2% | B5

Target: Thrombin, from Human Plasma, high activity (human, UniProt P00734 328-622)
Experiment: cell-based or functional assay

Row | % inhibition at 100 µM | Binder
41 | 1.1% | B1
42 | 11% | B2
43 | 0% | B3
44 | 2.3% | B4
45 | 5.4% | B5

Target: T4, Chymase, from human skin
Experiment: enzyme inhibition, pNA substrate

Row | % inhibition at 100 µM | Binder
46 | 0% | cyclo([Nle]CTASIP[Pro(4NHCOPhe)]QCY[dP]P) (disulfide 2-10; reading uncertain, also called Ex. 88) [Example 88]
47 | 0% | B6
48 | 0% | B7

Target: T5, Trypsin, Iodination grade, from human pancreas (human, UniProt P07477 24-247)
T5 construct: purified natural enzyme, bought
Experiment: enzyme inhibition, pNA substrate

Row | % inhibition at 100 µM | Binder
49 | 12.8% | B8
50 | 0% | cyclo([Nle]CTASIPPQCY[dF]P) (disulfide 2-10) [Example 116]
51 | 0% | B9

Target: Thrombin, from Human Plasma, high activity (human, UniProt P00734 328-622)
Experiment: enzyme inhibition, pNA substrate

Row | % inhibition at 100 µM | Binder
52 | 0% | B8
53 | 10.2% | B6
54 | 0% | B7
